Source: patent US20260015398A1

Target: strepII-flag-PLXA fusion protein displayed on engineered extracellular vesicles (strepII-flag-PLXA-EV) (Homo sapiens (Human)) (UniProt Q9UIW2)
Experiment: in vitro co-incubation of EVs with FITC-streptactin (10000:1), nanoflow cytometry, share of FITC-positive EVs

Sequence of UniProt Q9UIW2 (Q9UIW2 863-1316 limits assumed, change not shown): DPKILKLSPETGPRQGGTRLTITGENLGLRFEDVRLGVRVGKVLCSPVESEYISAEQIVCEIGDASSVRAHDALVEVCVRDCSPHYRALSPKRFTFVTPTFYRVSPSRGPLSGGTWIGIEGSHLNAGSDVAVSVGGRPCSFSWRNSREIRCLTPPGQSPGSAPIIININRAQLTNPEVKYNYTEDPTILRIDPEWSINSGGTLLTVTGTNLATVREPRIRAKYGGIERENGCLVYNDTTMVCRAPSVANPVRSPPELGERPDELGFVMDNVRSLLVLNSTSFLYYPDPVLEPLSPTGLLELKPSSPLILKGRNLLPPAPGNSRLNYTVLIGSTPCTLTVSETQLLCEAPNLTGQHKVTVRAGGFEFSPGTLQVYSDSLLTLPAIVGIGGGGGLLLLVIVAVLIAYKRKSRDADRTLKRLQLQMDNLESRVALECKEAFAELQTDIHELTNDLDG

Substance: FITC-streptactin
- positive rate: 73%
